Biological target: SARS-CoV-2南非株(B.1.351)活病毒的S蛋白 (SARS-CoV-2 B.1.351)
Experiment: cell-based or functional assay

B1: 9K抗体 (antibody, V domains shown)
VH: EVQLVESGGGVVQPGRSLGLSCAVSGFTFSSYAMHWVRQAPGKGLEWVALISNDGTIDSYADSVKGRFTISRDNSKNTLYLRMSSLRAEDTAVYYCARDKEQLVPTFDYWGQGTLVTVSS
VL: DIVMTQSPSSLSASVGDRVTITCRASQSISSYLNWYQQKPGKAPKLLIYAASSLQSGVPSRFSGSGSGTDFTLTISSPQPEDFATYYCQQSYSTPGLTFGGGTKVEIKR
With B1 the “中和滴度(半抑制浓度，IC50), live virus CPE assay on Vero E6 cells” value was 11.5 mg/L.

— patent publication CN113929774A (INST MICROBIOLOGY CAS, dated 2022)
